{
  "source": "paper PMC2955050",
  "note": "Non-standard residues stand in square brackets, D forms with d. No end group written: not given here. pY = N[C@@H](Cc1ccc(OP(=O)(O)O)cc1)C(=O)O",
  "data": [
    {"target": "recombinant DLAR catalytic domain (Drosophila)", "units": {"Kcat/Km of dephosphorylation of the peptide by DLAR (malachite green phosphatase assay)": "sec^-1M^-1"}, "values": [
      {"binder": "CDDS[pY]FGNKC (cysteine pairing not given here)", "note": "[Myospheroid peptide CDDS(pY)FGNKC]", "Kcat/Km of dephosphorylation of the peptide by DLAR (malachite green phosphatase assay)": 143000},
      {"binder": "VIGD[pY]VCRLCK (cysteine pairing not given here)", "note": "[Nervous Fingers peptide VIGD(pY)VCRLCK]", "Kcat/Km of dephosphorylation of the peptide by DLAR (malachite green phosphatase assay)": 196000},
      {"binder": "RDDT[pY]TAHAG", "note": "[Abelson peptide RDDT(pY)TAHAG]", "Kcat/Km of dephosphorylation of the peptide by DLAR (malachite green phosphatase assay)": 180000},
      {"binder": "TAEPD[pY]GALYE", "note": "[Cuticle peptide TAEPD(pY)GALYE]", "Kcat/Km of dephosphorylation of the peptide by DLAR (malachite green phosphatase assay)": 300000},
      {"binder": "TRDI[pY]ETDYYRK", "note": "[Insulin receptor peptide TRDI(pY)ETDYYRK]", "Kcat/Km of dephosphorylation of the peptide by DLAR (malachite green phosphatase assay)": 264000}
    ]}
  ]
}
